In patent US12129294B2, “Methods of treatment of diseases in which IL-13 activity is detrimental using anti-IL-13 antibodies” (AbbVie Inc., priority 2016, dated 2024):
Several values for one entry are separate records, joined by “and”; a condition that tells them apart may be missing. Equal entries are not always repeated.

Key:
[1] = target: IL-13 sequence variant, R110Q (Homo sapiens, UniProt P35225); test: Binding of the antibody to IL-13 variant
[2] = system: subjects with symptomatic eosinophilic esophagitis (EoE); test: Phase 2 study in EoE patients: dysphagia symptom composite diary score (daily symptom diary, DSD); assay type: in vivo, human; design: dysphagia symptom composite diary score, Mean change / dysphagia symptom composite diary score, Mean / dysphagia symptom composite diary score, Median: scale not given here; conditions: for dysphagia symptom composite diary score, Mean change / dysphagia symptom composite diary score, LSMD versus placebo: Change to Week 16
Text: Safety was monitored throughout the study. […] The study was powered for the primary endpoint. […]

[3] = system: subjects with symptomatic eosinophilic esophagitis (EoE); test: Phase 2 study in EoE patients: EEsAI PRO score; assay type: in vivo, human; design: EEsAI PRO score, Mean / EEsAI PRO score, Median: scale not given here; conditions: for EEsAI PRO score, Mean change / EEsAI PRO score, LSMD versus placebo: Change to Week 16
Experimental: Additionally, a comparison of the mean EEsAI PRO scores at baseline and at week 16 between the placebo group and the treatment group was conducted.

human type IL-13 = human type IL-13 (Homo sapiens, UniProt P35225, Q144R); conditions: see US patent pub. No. 2014/0341913; cited from earlier work
Chain of human type IL-13 (P35225 15-146 Q144R limits assumed): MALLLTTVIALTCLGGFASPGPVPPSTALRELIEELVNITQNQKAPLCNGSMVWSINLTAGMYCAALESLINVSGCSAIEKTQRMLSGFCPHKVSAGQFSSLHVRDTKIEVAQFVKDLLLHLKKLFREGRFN

Chain of IL-13 sequence variant, R110Q (P35225 35-146, stated change not applied): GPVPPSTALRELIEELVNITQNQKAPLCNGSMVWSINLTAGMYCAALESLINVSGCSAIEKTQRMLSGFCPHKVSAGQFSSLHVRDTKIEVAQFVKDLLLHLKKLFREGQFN

B1: RPC4046: recombinant humanized, high-affinity, selective anti-IL-13 monoclonal antibody; heavy chain variable region SEQ ID NO: 2, light chain variable region SEQ ID NO: 3 (antibody, V domains shown)
VH: EVTLRESGPGLVKPTQTLTLTCTLYGFSLSTSDMGVDWIRQPPGKGLEWLAHIWWDDVKRYNPALKSRLTISKDTSKNQVVLKLTSVDPVDTATYYCARTVSSGYIYYAMDYWGQGTLVTVSS
VL: DIQMTQSPSSLSASVGDRVTISCRASQDIRNYLNWYQQKPGKAPKLLIFYTSKLHSGVPSRFSGSGSGTDYTLTISSLQPEDIATYYCQQGNTLPLTFGGGTKVEIK
[1]
  binding to IL-13 sequence variant, R110Q: binds
[2]; 180 mg, ITT, Baseline
  dysphagia symptom composite diary score, Mean: 27.63 and 27.6
  dysphagia symptom composite diary score, Median: 28.5
[2]; 180 mg, ITT
  dysphagia symptom composite diary score, Mean change: −5.3
[2]; 180 mg, ITT, ANCOVA
  dysphagia symptom composite diary score, LSMD versus placebo: 0.02
[2]; 180 mg, ITT, Week 16
  dysphagia symptom composite diary score, Mean: 21.9
  dysphagia symptom composite diary score, Median: 26.1
[2]; 180 mg, non-steroid-refractory pts
  dysphagia symptom composite diary score, Mean change: −10.0
[2]; 180 mg, non-steroid-refractory
  dysphagia symptom composite diary score, LSMD versus placebo: 0.93
[2]; 180 mg, steroid-refractory pts
  dysphagia symptom composite diary score, Mean change: −1.3
[2]; 180 mg, steroid-refractory
  dysphagia symptom composite diary score, LSMD versus placebo: −1.3
[2]; 360 mg, ITT, Baseline
  dysphagia symptom composite diary score, Mean: 29.03 and 29
  dysphagia symptom composite diary score, Median: 27.5
[2]; 360 mg, ITT
  dysphagia symptom composite diary score, Mean change: −13.3
[2]; 360 mg, ITT, ANCOVA
  dysphagia symptom composite diary score, LSMD versus placebo: −6.50
[2]; 360 mg, ITT, Week 16
  dysphagia symptom composite diary score, Mean: 15.3
  dysphagia symptom composite diary score, Median: 6.2
[2]; 360 mg, non-steroid-refractory pts
  dysphagia symptom composite diary score, Mean change: −14.0
[2]; 360 mg, non-steroid-refractory
  dysphagia symptom composite diary score, LSMD versus placebo: −3.1
[2]; 360 mg, steroid-refractory pts
  dysphagia symptom composite diary score, Mean change: −12.3
[2]; 360 mg, steroid-refractory
  dysphagia symptom composite diary score, LSMD versus placebo: −12.0
[2]; both low dose (180 mg) and high dose (360 mg)
  mean dysphagia symptom composite diary score at week 16 compared to the controls: reduction
[2]; subgroup analysis, 180 mg and 360 mg, week 16
  mean dysphagia symptom composite diary score in steroid-refractory subjects: dose-dependent reduction
[2]; subgroup analysis, over 16 weeks
  benefit on dysphagia composite diary score, steroid refractory versus non-steroid-refractory subgroup: steroid refractory sub-group benefited more
[3]; 180 mg and 360 mg, week 16
  mean EEsAI PRO at week 16: dose-dependent reduction
[3]; 180 mg, Baseline
  EEsAI PRO score, Mean: 58.1
  EEsAI PRO score, Median: 61.0
[3]; 180 mg
  EEsAI PRO score, Mean change: −19.8
[3]; 180 mg, ANCOVA
  EEsAI PRO score, LSMD versus placebo: −4.0
[3]; 180 mg, Week 16
  EEsAI PRO score, Mean: 39.3
  EEsAI PRO score, Median: 49.0
[3]; 180 mg, non-steroid-refractory
  EEsAI PRO score, LSMD versus placebo: 4.9
  EEsAI PRO score, Mean change: −20.4
[3]; 180 mg, steroid refractory
  EEsAI PRO score, LSMD versus placebo: −13.5
  EEsAI PRO score, Mean change: −19.1
[3]; 360 mg, Baseline
  EEsAI PRO score, Mean: 56.2
  EEsAI PRO score, Median: 58.0
[3]; 360 mg
  EEsAI PRO score, Mean change: −23.0
[3]; 360 mg, ANCOVA
  EEsAI PRO score, LSMD versus placebo: −7.2
[3]; 360 mg, Week 16
  EEsAI PRO score, Mean: 33.2
  EEsAI PRO score, Median: 30.5
[3]; 360 mg, non-steroid-refractory
  EEsAI PRO score, LSMD versus placebo: −1.2
  EEsAI PRO score, Mean change: −25.2
[3]; 360 mg, steroid refractory
  EEsAI PRO score, LSMD versus placebo: −15.5
  EEsAI PRO score, Mean change: −20.8
[3]; sub-group analysis, week 16
  mean EEsAI PRO score in the steroid refractory sub-group: statistically significant reduction
Human type IL-13
  binding affinity to helices A and D of interleukin 13 (IL-13): binds with great affinity
